From paper PMC12591191 (2025)
Where no end group is shown, it is not given here. The star is where a group is joined. Biotin = O=C1N[C@H]2[C@H](CS[C@H]2CCCCC(=O)*)N1; Myristoyl = CCCCCCCCCCCCCC(=O)*

Key:
[1] = target: T1, SIRT6 R65A (human, UniProt Q8N6T7 1-355, R65A); assay: BLI
[2] = target: SIRT6 G60A (Homo sapiens); assay: BLI
[3] = target: T2, SIRT6 H133Y (human, UniProt Q8N6T7 1-355, H133Y); assay: BLI
[4] = target: T3, SIRT6 S56Y (human, UniProt Q8N6T7 1-355, S56Y); assay: BLI
[5] = target: T1, SIRT6 R65A; assay: BLI; Mg2+
[6] = target: T2, SIRT6 H133Y; assay: BLI; Mg2+
[7] = target: T3, SIRT6 S56Y; assay: BLI; Mg2+

T1 sequence (Q8N6T7 whole entry R65A): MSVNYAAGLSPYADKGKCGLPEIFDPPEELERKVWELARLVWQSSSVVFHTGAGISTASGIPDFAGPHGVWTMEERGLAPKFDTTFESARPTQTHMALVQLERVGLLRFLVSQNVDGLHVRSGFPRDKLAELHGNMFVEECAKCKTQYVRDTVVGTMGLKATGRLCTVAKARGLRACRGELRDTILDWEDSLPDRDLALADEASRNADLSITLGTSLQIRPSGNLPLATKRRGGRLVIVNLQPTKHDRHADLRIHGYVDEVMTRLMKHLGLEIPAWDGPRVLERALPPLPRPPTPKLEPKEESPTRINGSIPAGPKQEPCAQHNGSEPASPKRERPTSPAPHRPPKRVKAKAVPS
T2 sequence (Q8N6T7 whole entry H133Y): as the sequence (Q8N6T7 whole entry R65A) above, with A65R, H133Y counted along it
T3 sequence (Q8N6T7 whole entry S56Y): as the sequence (Q8N6T7 whole entry R65A) above, with S56Y, A65R counted along it
SIRT6 G60A (Homo sapiens), sequence (chain, as listed by the source G60A): as the sequence (Q8N6T7 whole entry R65A) above, with G60A, A65R counted along it

- Kd [1]: 2000 nM
- Kd [2]: 1300 nM
- Kd [3]: 3200 nM
- Kd [4]: 1600 nM
- Kd [5]: 1800 nM
- Kd [6]: 680 nM
- Kd [7]: 610 nM
Binder: Biotin-KQTARK(Myristoyl)STGGKARRRRR [B-H3K9^Myr-5R (biotin-KQTARK^MyrSTGGKARRRRR)]
